{
  "source": "paper PMC5250575",
  "origin": "cited, not measured here",
  "molecular_target": "Kv1.3 (Homo sapiens) (UniProt P22001)",
  "sequence (P22001 whole entry)": "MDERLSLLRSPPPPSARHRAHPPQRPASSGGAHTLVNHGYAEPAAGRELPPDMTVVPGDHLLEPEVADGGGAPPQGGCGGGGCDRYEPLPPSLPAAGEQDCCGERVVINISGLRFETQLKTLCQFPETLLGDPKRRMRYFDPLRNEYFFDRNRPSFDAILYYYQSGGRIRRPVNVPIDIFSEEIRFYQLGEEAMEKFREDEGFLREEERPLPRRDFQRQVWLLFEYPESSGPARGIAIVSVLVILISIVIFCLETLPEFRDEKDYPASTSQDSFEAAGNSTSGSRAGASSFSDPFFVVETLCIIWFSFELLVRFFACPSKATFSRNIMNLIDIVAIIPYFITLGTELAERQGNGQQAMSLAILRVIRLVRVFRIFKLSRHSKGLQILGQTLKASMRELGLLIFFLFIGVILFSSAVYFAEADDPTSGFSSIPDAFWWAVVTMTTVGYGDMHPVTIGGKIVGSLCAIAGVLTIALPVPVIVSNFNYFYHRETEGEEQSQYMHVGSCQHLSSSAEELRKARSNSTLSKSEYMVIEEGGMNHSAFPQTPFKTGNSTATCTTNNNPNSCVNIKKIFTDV",
  "data": [
    {"substance": "Margatoxin (from UniProt P40755)", "values": [
      {"measurement": "Kd", "value": 0.0117, "unit": "nM"}
    ]}
  ]
}
